40 sequences from the nanobody polyreactivity screen of Harvey et al. (2022) can be followed below.

A short description of this data set: yeast display, Sf9 membrane polyspecificity reagent, FACS + sequencing; frameworks hold sequencing errors. In outline:
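In a synthetic yeast display library (Saccharomyces cerevisiae BJ5465), nanobody expression was induced with galactose for 36–48 hours. FACS gates were set low and high (top ~1%) using anti-HA fluorescence for expression and streptavidin fluorescence for binding of the Sf9 membrane reagent. Each polyreactivity label is drawn from the gate of origin.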
As for “QVQLVESGGGLVQAGGSLRLSCAASGLTFRWYAMGWYRRAPGKERELVAAISSGGSTNYADSVKGRFTISRDNAKNTVYLQMNSLKPEDTAVYYCNAKGRPWFKYDYWGQGTQVTVSS”, the “polyreactivity (PSR sort gate)” value was “high polyreactivity”. As for “QVQLVESGGGLVQAGGSLRLSCAASGLTFRYYAMGWYRQAPGKERELVAAINYSGGGTYYADSVKGRFTISRDNAKNTVYLQMNSLKPEDTAVYYCNAAYRGYYYWGQGTQVTVSS”, the entry is “high polyreactivity”.

“QVQLVESGGGLVQAGGSLRLSCAASGLTFRYYAMGWYRQAPGKERELVAAITGSGGSTYYADSVKGRFTISRDNAKNTVYLQMNSLKPEDTAVYYCADVIAEYDYFSYYYEYDYWGQGTQVTVSS”: the “polyreactivity (PSR sort gate)” value is “high polyreactivity”. To “QVQLVESGGGLVQAGGSLRLSCAASGLTFRYYAMGWYRQAPGKERELVAAITRRGSTYYADSVKGRFTISRDNAKNTVYLQMISLKPEDTAVYYCATVTGFHSSPLRDLDYWGQGTQVTVSS” belongs “high polyreactivity”; to “QVQLVESGGGLVQAGGSLRLSCAASGLTFRYYAMGWYRQAPGKERELVAAITRRGSTYYADSVKGRFTISRDNAKNTVYLQMNCLKPEDTAVYYCATVTGFHSSPLRDLDYWGQGTQVTVSS”, “high polyreactivity”. “QVQLVESGGGLVQAGGSLRLSCAASGLTFRYYSMGWYSQAPGKERELVASISWSGASTYYADSVKGRFTISRDNAKNTVYLQMNSLKPEDTGVYYCNAGYYGSYDYWGQGTQVTVSS”: the “polyreactivity (PSR sort gate)” value was “high polyreactivity”. To “QVQLVESGGGLVQAGGSLRLSCAASGLTFRYYTMGWYRQAPGKERELVAAISRTVGSTYYADSVKGRFTISRDNAKNTVYLQMNSLKPEDTAVYYCAAKYEQYSPAVIYYYWGQGTQVTVSS” belongs “high polyreactivity”; to “QVQLVESGGGLVQAGGSLRLSCAASGLTFSAYAMGWYRQAPGKERELVAAITSSGGSTYADSVKGRFTISRDNAKNTVYLQMNSLKPEDTAVYYCNADLGDYGWYSSYDYWGQGTQVTVSS”, “low polyreactivity”. As for “QVQLVESGGGLVQAGGSLRLSCAASGLTFSAYAMGWYRQAPGKERELVAAITSSGGSTYADSVKGRFTLSRDNAKNTVYLQMNSRKPEDTAVYYCNADLGDYGWYSSYDYWGQGNQVTVSS”, the entry is “low polyreactivity”; as for “QVQLVESGGGLVQAGGSLRLSCAASGLTFSGNVMGCYIQAPGKERELVAAIDRSGGSTYYADSVKGRFTISRDNAKNTVYLQMNSLKPEDTAVYYCAVSSYPNHSRSWDDYWGQGTQVTVSS”, “low polyreactivity”. To “QVQLVESGGGLVQAGGSLRLSCAASGLTFSHYAMGWYRQAPGKERELVAGISSRGGNTYYADSVKGRFTISRDNAKNTVYLQMNSLKPEDTAVYYCATPRSRTDGYDYWGQGTQVTVSS” belongs “high polyreactivity”; to “QVQLVESGGGLVQAGGSLRLSCAASGLTFSIYAMGWYRQAPGKERELVAAISWSGGSTYYADSVKGRFTISRDNAKNTVYLQMNSLKPEDTAVYYCAARVYRPWWRYDYWGQGTQVTVSS”, “high polyreactivity”; to “QVQLVESGGGLVQAGGSLRLSCAASGLTFSIYAMGWYRQAPGKERELVAGISQSGGSTYADSVKGRFTISRDNAKNTVYLQMNSLKPADTAVYYCAKEFEWVGSPSTVDGLDYWGHGTQVTVSS”, “low polyreactivity”. “QVQLVESGGGLVQAGGSLRLSCAASGLTFSRNAMGWYRQAPGKERELFATINSGGRTNYADSVKGRFTISRDNAKNTVYLQMNSQKPEDTAVYYCAVRTYSNYRAIVPYCRYDYWGQGTQVTVSS”: the “polyreactivity (PSR sort gate)” value is listed as “high polyreactivity”.

For “QVQLVESGGGLVQAGGSLRLSCAASGLTFSRNTMGWYRQAPGKERELVDTIDRGGRTNYADSVKGRFTISRDNAKNTVYLQMNSLKPEDTAVYYCATDASFYDPDLYPYGYDYWGQGTQVTVSS”, the “polyreactivity (PSR sort gate)” value was “high polyreactivity”. As for “QVQLVESGGGLVQAGGSLRLSCAASGLTFSYYAMGWYRQAPGKERELVAAITSGGNTNYADSVKGRFTISRDNAKNTVYLQMNSLKPEDTAVYYCAARFYFTRSFPRKFYYWGQGTQVTVSS”, the entry is “high polyreactivity”; as for “QVQLVESGGGLVQAGGSLRLSCAASGLTFSYYVMGWYRQAPGKVRELVAAISSGGSTNYADSVKGRFTMSRDNAKNTVYLQLNSLKPEDTAVYYCAARNARADKQCTRWRNYWGQGTQVTVSS”, “low polyreactivity”; as for “QVQLVESGGGLVQAGGSLRLSCAASGLTFTGYAMGWYRQATGKERELVASISRSGASTFYADSVKGRFTISRDNAKNTVYLQMNSLKPEDTAVYYCAAVPGWLTSRYYYWGQGTQVTVSS”, “high polyreactivity”. To “QVQLVESGGGLVQAGGSLRLSCAASGLTFTLYTMGWYRQAPGKEREFVAVISGTGGRTYYADSVKGRFTISRDNAKNTVYLQMNSLKPEDTAVYYCATCYSFRYWGQGTQVTVSS” belongs “high polyreactivity”; to “QVQLVESGGGLVQAGGSLRLSCAASGLTFTSYVMGWYRQAPGKERELVAAIRWSGGRTYYADSVKGRFTISRDNAKNTVYLQMNSLKPEDTAVYYCAAQWYSGSHGYYYWGQGTQVTVSS”, “high polyreactivity”.

As for “QVQLVESGGGLVQAGGSLRLSCAASGLTFTVYGMGWSRQAPGKEREFVATISRRGGRTYYADSVKGRFTISRDNAKNTVYVLLNSLKPEDTAVYYCNADIGTYVRSGGGDYWGQGTQVTVSS”, the “polyreactivity (PSR sort gate)” value was “low polyreactivity”. As for “QVQLVESGGGLVQAGGSLRLSCAASGLTFTYNAMGGYRQAPGKERELVAAITSGGNTNYADSVKGRFTISRDNAKNTVYLQMKSLKPEDTAVYYCATDRKNGISGRYGYWGQGTQVTVSS”, the “polyreactivity (PSR sort gate)” value is on record as “low polyreactivity”. As for “QVQLVESGGGLVQAGGSLRLSCAASGLTFVAYAMGWYRQAPGKERELVASISSRTGGTSYADSVKGRFTISRDNAKNTVYLQMNSLKPEDTAVYYCNAAARRYTSVFYTSGYTFDYWGQGTQVTVSS”, the entry is “low polyreactivity”.

Regarding “QVQLVESGGGLVQAGGSLRLSCAASGLTFVFYAMGWYRQAPGKERELVAAISWSTGRTYYADSVKGRFTISRDNAKNTVYLQMNSLKPEGTAVYYCAASYLGRKYDYWGQGTQVTVSS”, the “polyreactivity (PSR sort gate)” value is “high polyreactivity”. For “QVQLVESGGGLVQAGGSLRLSCAASGLTFVKNVMGWYRQAPGKERELVAAISRRGGSTYSADSVKGRFTISRDNAKNTVYLQMNSLQPADTAVYYCAARTPSPTRPQYYYWGQGTQVTVSS”, the “polyreactivity (PSR sort gate)” value was “high polyreactivity”. Regarding “QVQLVESGGGLVQAGGSLRLSCAASGLTFVLYAMGWYRQAPGKERELVAAISKRGGSTNYADSVKGRFTISRDIAKNTVYLQMNSLKPEDTAVYYCAARYPQGGTGKATYVRSRSGYWGQGTKVTVSS”, the “polyreactivity (PSR sort gate)” value is “high polyreactivity”. In the case of “QVQLVESGGGLVQAGGSLRLSCAASGLTFVLYAMGWYRQAPGQERELVAAISKRGGSTNYADSVKGRFTISRDNAKNTVYLQMNSLKPADTAVYYCAPRYPQGGTGKATYVRSRSGYWGQGTQVTVSS”, the “polyreactivity (PSR sort gate)” value is “high polyreactivity”. On to “QVQLVESGGGLVQAGGSLRLSCAASGLTFVPNAMGWYRQAPGKERELFAAISNNGGRTYYADSVKGRFTISRDNAKNTVYLQMNSLKPEDTAVYYCANYLSPGERHSYDYWGQGTKVTVSS”, for which the “polyreactivity (PSR sort gate)” value was “high polyreactivity”. To “QVQLVESGGGLVQAGGSLRLSCAASGLTFVRYTMGWYRQAPGKERELVADISSVGSTYYADSVKGRFTISRDNAKNTVYLQMNSLKPQDTAVYYCNTSYIIWYDSWGQGTQVTVSS” belongs “low polyreactivity”; to “QVQLVESGGGLVQAGGSLRLSCAASGLTFVWYAMGWYIQAPGKERELVAGITSGGRTYYADSVKGRFTISRDNAKNTVYLQMISLKPEDTGVYDCNAVVRWGYGYDYWGQGTQVTVSS”, “high polyreactivity”; to “QVQLVESGGGLVQAGGSLRLSCAASGLTFVWYAMGWYRQAPGKERELVAAIRGGGSTYYADSVKGRFTISRDNAKNTVYLQMNSLKPEDTAVYYCNARYYGAHSPYRFDYWGQGTQVTVSS”, “high polyreactivity”. To “QVQLVESGGGLVQAGGSLRLSCAASGLTFVWYGKGWYRQATGKERELVAAITRGGSTYYADSVKGRFTISRDNAKNTVYLQMKSLKPEDTAVYYCAARRLERRVRPGYYPYDYWVQGTQVTVSS” belongs “high polyreactivity”. To “QVQLVESGGGLVQAGGSLRLSCAASGLTFVWYGMGWYRQAPGKERELVAAITRGGSTYYADSVKGRFTISRDNAKNTVYLQMNSLKPEDTAVYYCAARYKYTGYDYWGQGTQVTVSS” belongs “high polyreactivity”. With “QVQLVESGGGLVQAGGSLRLSCAASGLTFVWYSMGWYRHAPGKERELVAGITSGGRTYYADSVKGRFTISRDNAKNTVYLQMNRLKPEDTAVYYCAAYGNYNEYDSWGQGTQVSVSS”, the “polyreactivity (PSR sort gate)” value was “high polyreactivity”. “QVQLVESGGGLVQAGGSLRLSCAASGLTFVYNAMGWYRQATGKERELVAAISRVGSTNYADSVKGRFTISRDNAKYTVYLQLNSLKPADTAVYYCNKGNAYVVYTSGYDYWGQGTQVTVSS”: the “polyreactivity (PSR sort gate)” value was “low polyreactivity”. “QVQLVESGGGLVQAGGSLRLSCAASGLTFVYYVLGWYRQAPGKESELVAAITDGGSTYYADSVKGRFTISRDNAKNTVYLQMNSRKPEDTAVYYCAADYYWLYGRWGVDYWGQGTQVTVSS”: the “polyreactivity (PSR sort gate)” value was “high polyreactivity”.

With “QVQLVESGGGLVQAGGSLRLSCAASGLTFWANTMGWYRQAPGKERELVAAITWSGGSTYYADSVKGRFTISRDNAKNTFYLQMNSLKPEDNAVYYCAAEEFFSAGYSYYYWGQGTQVTVSS”, the “polyreactivity (PSR sort gate)” value is given as “low polyreactivity”.

Turning to “QVQLVESGGGLVQAGGSLRLSCAASGLTFWAYAMGWYRQEPGKEREFVAAISWSVDSTYYADSVKGRFTISRDNAKNTVYLQMNSLKPEDTAVYYCAAEWYYVYIAPYRYYYRGQGTQVTVSS”, the “polyreactivity (PSR sort gate)” value was “low polyreactivity”. To “QVQLVESGGGLVQAGGSLRLSCAASGLTFWFNAMGWYRQAHGKEREFVAAISLSSTYYADSVKGRFTISRDNAKNTVYLQMNSLKPEDTAVYYCAAELSVSLYDFDYWGQGTQETVSS” belongs “high polyreactivity”. Consider “QVQLVESGGGLVQAGGSLRLSCAASGLTFWPYAMGWYRQAPGKERELVAAISSSGRTYYADSVKGRFTISRDNAKNTVYLQMNSLKPEDTAVYYCARRFWFHYYGYDYWGQGTQVTVSS”, for which the “polyreactivity (PSR sort gate)” value is given as “high polyreactivity”.
